Experimental data as given in publication PMC12531337 (Nature Communications, 2023).
Numbering of substitutions follows the chain as printed. Names and notes keep the numbering of the source. Values joined by “and” are separate entries in the source; they are usually repeats but may differ in a detail not shown here. Equal entries are not always repeated.

T1: mCherry fusion FUS LC domain (UniProt P35637 2-214)
T1 sequence (looked up): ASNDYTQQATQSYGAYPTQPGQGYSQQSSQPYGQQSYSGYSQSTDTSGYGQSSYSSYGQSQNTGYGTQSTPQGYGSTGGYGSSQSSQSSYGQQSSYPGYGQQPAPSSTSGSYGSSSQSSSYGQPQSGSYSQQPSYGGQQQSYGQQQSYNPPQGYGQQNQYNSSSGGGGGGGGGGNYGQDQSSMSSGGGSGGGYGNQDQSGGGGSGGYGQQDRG

B1: mCherry fusion hnRNPA2 LC domain F291S mutant (domain or fragment, UniProt P22626-2 181-341, looked up)
chain: MQEVQSSRSGRGGNFGFGDSRGGGGNFGPGPGSNFRGGSDGYGSGRGFGDGYNGYGGGPGGGNFGGSPGYGGGRGGYGGGGPGYGNQGGGYGGGYDNYGGGNYGSGNYNDSGNYNQQPSNYGPMKSGNFGGSRNMGGPYGGGNYGPGGSGGSGGYGGRSRY
B2: GFP-fused ZnFs of KLF4 (domain or fragment)
chain: not shown
B3: GFP:ZNF512B ZnF3-5 (domain or fragment, UniProt Q96KM6 540-653, looked up)
chain: LKCQHCRKQFKSKAGLNYHTMAEHSAKPSDAEASEGGEQEERERLRKVLKQMGRLRCPQEGCGAAFSSLMGYQYHQRRCGKPPCEVDSPSFPCTHCGKTYRSKAGHDYHVRSEH
B4: GFP:ZEB2-ZnF6-7 (domain or fragment, UniProt O60315 999-1049, looked up)
chain: YACDLCDKTFQKSSSLLRHKYEHTGKRPHQCQICKKAFKHKHHLIEHSRLH
B5: GFP:ZEB1-ZnF5-7 (domain or fragment, UniProt P37275 904-981, looked up)
chain: YACDLCDKIFQKSSSLLRHKYEHTGKRPHECGICKKAFKHKHHLIEHMRLHSGEKPYQCDKCGKRFSHSGSYSQHMNH
B6: GFP fusion ZEB2 ZnF6-8 (domain or fragment, UniProt O60315 999-1076, looked up)
chain: B5 chain with I9T, E30Q, G32Q, M48S
B7: GFP:ZEB2-ZnF1-4 (domain or fragment, UniProt O60315 211-334, looked up)
chain: LTCPYCDRGYKRLTSLKEHIKYRHEKNEENFSCPLCSYTFAYRTQLERHMVTHKPGTDQHQMLTQGAGNRKFKCTECGKAFKYKHHLKEHLRIHSGEKPYECPNCKKRFSHSGSYSSHISSKKC

Biological target: the molecule itself
Test: AUC

Binder | stoichiometry N
B1 | 2 and 3

Biological target: mCherry fusion hnRNPA2 LC domain (UniProt P22626-2 181-341)
Test: hydrogel binding assay

Binder | binding result
B2 | binds
B3 | binds
HQCQICKKAFKHKHHLIEHSRLH (domain or fragment, UniProt O60315 1027-1049, looked up) [GFP:ZEB2-ZnF7] | binds
B4 | binds
FSCQFCKESFPGPIPLHQHERYLCK (domain or fragment, UniProt O60315 581-605, looked up) [GFP:ZEB2-ZnF5] | binds
B5 | binds
B6 | binds
YQCDKCGKRFSHSGSYSQHMNH (domain or fragment, UniProt O60315 1055-1076, looked up) [GFP:ZEB2-ZnF8] | binds
HQCQICKKAFKHKHHLIEHSRLHSGEKPYQCDKCGKRFSHSGSYSQHMNH (domain or fragment, UniProt O60315 1027-1076, looked up) [GFP:ZEB2-ZnF7-8] | binds
YACDLCDKTFQKSSSLLRHKYEH (domain or fragment, UniProt O60315 999-1021, looked up) [GFP:ZEB2-ZnF6] | binds
B7 | binds

Biological target: T1, mCherry fusion FUS LC domain
Test: hydrogel binding assay

Binder | binding result
B6 | binds

Biological target: mCherry fusion TDP43 LC domain (UniProt Q13148 262-414)
Test: hydrogel binding assay

Sequence of mCherry fusion TDP43 LC domain (Q13148 262-414): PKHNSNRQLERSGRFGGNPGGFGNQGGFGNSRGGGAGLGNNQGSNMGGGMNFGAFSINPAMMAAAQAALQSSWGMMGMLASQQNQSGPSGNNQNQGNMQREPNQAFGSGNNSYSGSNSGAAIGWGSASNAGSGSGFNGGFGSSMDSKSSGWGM

Binder | binding result
B6 | binds
